From IntAct's records for PubMed 9374523

B1: MutS protein homolog 5 (Saccharomyces cerevisiae), Q12175 (parent)
chain: MSHEWLISASETMRSIGNGEGLRDKGAVVANNDGEFNEGDTNREEDSSTIFSFDFDEEIVMCIDFSGGKLGCSILDYHTKTLKAFDQDYVVNKTTISSHDLIDDADMSSNDISLLLGLLIMEANPTVCLVPARLEDWIFDYIKTKCDEINCRLELQPIKRFKKWDLLQSLQLRGHDNQTILNDILSNSKFTTTVTLGTVGCILANHEQLGEYNDSTASSNMVTGRLVQNAFEDVIHGIRYIDIRDRMVLDENTISALHIFPTAHKLGHDKMMRNGFFSVFELFNQVSSDYARRILKSWLINPLTNKKRIETRYSIIRTLLDKQNAIIFSDLSQSIKRCPDAFGFINQLRSGKSTLGTWSKVASFLEKGIAIFQLVSSLKLGSDEANILHDIKNKVDISALKECLRKVETVIDFDTSRDTKTLTINTGVDNRLDECRNIYNHLEGILLDVARETQIFLLNTMPQEDCKTTKSLEKLVNAVYIPQLGYLVTISVLMEPLLDGIPNLQWEEIFRSSENIYFKNGRVLELDETYGDIYGAISDFEIEILFSLQEQILRRKTQLTAYNILLSELEILLSFAQVSAERNYAEPQLVEDECILEIINGRHALYETFLDNYIPNSTMIDGGLFSELSWCEQNKGRIIVVTGANASGKSVYLTQNGLIVYLAQIGCFVPAERARIGIADKILTRIRTQETVYKTQSSFLLDSQQMAKSLSLATEKSLILIDEYGKGTDILDGPSLFGSIMLNMSKSEKCPRIIACTHFHELFNENVLTENIKGIKHYCTDILISQKYNLLETAHVGEDHESEGITFLFKVKEGISKQSFGIYCAKVCGLSRDIVERAEELSRMINRGDDVVQQCGNLTEKEMREFQKNQEIVKKFLSWDLDLETTTTSENLRLKLKNFLR
partner: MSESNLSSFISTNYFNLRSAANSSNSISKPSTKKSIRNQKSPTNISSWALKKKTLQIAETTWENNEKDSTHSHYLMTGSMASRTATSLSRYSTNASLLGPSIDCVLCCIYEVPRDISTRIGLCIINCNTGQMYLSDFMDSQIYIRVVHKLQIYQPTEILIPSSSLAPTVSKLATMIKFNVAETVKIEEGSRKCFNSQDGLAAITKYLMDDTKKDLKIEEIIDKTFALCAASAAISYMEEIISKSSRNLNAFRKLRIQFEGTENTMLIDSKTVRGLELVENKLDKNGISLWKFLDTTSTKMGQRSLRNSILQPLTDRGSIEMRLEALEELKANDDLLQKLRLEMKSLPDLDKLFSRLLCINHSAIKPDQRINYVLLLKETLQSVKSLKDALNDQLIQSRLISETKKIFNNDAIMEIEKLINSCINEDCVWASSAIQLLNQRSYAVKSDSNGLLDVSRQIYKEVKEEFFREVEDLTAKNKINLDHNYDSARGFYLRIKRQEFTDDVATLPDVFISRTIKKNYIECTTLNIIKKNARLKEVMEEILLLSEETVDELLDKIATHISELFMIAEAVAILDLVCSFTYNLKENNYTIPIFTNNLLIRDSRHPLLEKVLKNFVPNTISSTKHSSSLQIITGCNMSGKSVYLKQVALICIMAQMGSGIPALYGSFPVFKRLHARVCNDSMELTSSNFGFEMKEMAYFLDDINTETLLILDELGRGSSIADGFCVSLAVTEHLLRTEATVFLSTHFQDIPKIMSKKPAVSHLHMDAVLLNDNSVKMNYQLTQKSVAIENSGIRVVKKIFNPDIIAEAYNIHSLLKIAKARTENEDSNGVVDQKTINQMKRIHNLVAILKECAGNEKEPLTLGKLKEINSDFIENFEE

Variants of: B1
Conditions: with msh4_yeast MSH4, P40965

effect of a mutation on the interaction | Variant
with no effect | G643D
with no effect | G821D
with no effect | A644V
with no effect | G648R
